Conditions in all cases: both partners purified
Test [1] deals with T1, cpSRP43 CD2CD3 (UniProt O22265 264-373, 15N,13C labelled where it is the observed partner in NMR).
T1 construct: cpSRP43 chromodomains 2 and 3, residues 264-373; His6-Trx is joined through a cleavable TEV site; In the crystal structure the same range stands inside the fusion m15; also called cpSRP43 CD2CD3 deletion construct; source: E. coli Rosetta2 pLysS, purified (as His6-Trx fusion with a cleavable TEV site; Superdex75)
T1 sequence (looked up): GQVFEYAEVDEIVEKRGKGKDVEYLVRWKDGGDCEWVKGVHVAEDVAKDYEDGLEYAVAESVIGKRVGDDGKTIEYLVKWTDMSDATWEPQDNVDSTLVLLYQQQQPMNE
Briefly: SAXS; CD2CD3 alone and with 7 × molar excess of A3CT IV, 298 K.

Test [2] addresses T2, full-length cpSRP43 (UniProt O22265 57-373).
T2 construct: cpSRP43, the 43-kDa subunit of the chloroplast signal recognition particle (CD1, Ank1-4, CD2, CD3); called full-length in the results; the chloroplast transit peptide may be absent from the recombinant protein (surmise); also called cpSRP43 wild-type; source: E. coli Rosetta (DE3) pLysS, purified (HisTrap, size-exclusion chromatography)
Briefly: ITC; VP-ITC, 20 °C, 20 mM Hepes (pH 7.5), 150 mM NaCl, 5 mM MgCl2, 0.25 mM TCEP; 0.01–0.1 mM in the cell, 0.1–1.0 mM in the syringe; duplicate or triplicate. On the technique in general: Isothermal titration calorimetry measures the heat released or taken up as one component is titrated into another.

Test [3] addresses T1, cpSRP43 CD2CD3. Briefly: crystal structure; His6–Trx–CD2CD3–(GS)3–A3CT IV on one chain, 2.8 Å, two molecules in the asymmetric unit; 20% PEG 3350, 0.2 M Ca(OAc)2, 18 °C.
Test [4] has as its target T3, A3CT (Alb3 C-terminal tail) produced as His6-Trx fusion for NMR (UniProt Q8LBP4 363-462, 15N,13C labelled where it is the observed partner in NMR).
T3 construct: Alb3 insertase C-terminal tail; the A3CT constructs encode residues 363-462; this one is used for all NMR rows; also called Trx–A3CT
T3 sequence (looked up): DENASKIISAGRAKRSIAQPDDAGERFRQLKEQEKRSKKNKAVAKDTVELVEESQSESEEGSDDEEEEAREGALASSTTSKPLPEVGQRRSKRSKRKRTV
Nature of the test: NMR titration; 1H,15N HSQC chemical shift perturbations of the labelled partner on stepwise addition of the unlabelled ligand, 298 K, 20 mM Na-phosphate (pH 6.5), 150 mM NaCl.

Where no end group is shown, it is not given here.

B1: A3CT IV peptide (peptide, UniProt Q8LBP4 434-461, looked up)
peptide: GALASSTTSKPLPEVGQRRSKRSKRKRT
modifications: also: 15N,13C labelled where it is the observed NMR partner
notes: Alb3 C-terminal 28 residues including motif IV, residues 434-461 (holds 454-KRSKRKR-460); The ITC methods also say that peptides were purchased from PSL; also called A3CT motif IV; motif IV; source: E. coli BL21, purified (His6-GST fusion, TEV cleavage, HisTrap, Superdex75); not shown: His6, N-terminal, cleaved; GST, N-terminal, cleaved
For B1, the binding result in test [1] was “binds”.

B2: A3CT motif II peptide (peptide)
chain: IISAGRAKRSI
modifications: The exact ends of the peptide are not printed. 369-379 is the region the text gives as including motif II, so the assayed peptide may be longer. Terminal chemistry is not stated.
One may read the Kd as a measure of binding affinity in units of concentration. Low readings indicate tighter binding, high ones weaker binding. In test [2], B2 had a Kd of 150 µM.

B3: A3CT IV (residues 440–461) as joined to CD2CD3 in the fusion construct (peptide, UniProt Q8LBP4 440-461, looked up)
peptide: TTSKPLPEVGQRRSKRSKRKRT
notes: Alb3 C-terminal tail motif IV, residues 440-461; residues 453-461 are ordered in the structure, 454-KRSKRKR-460 is threaded into CD3; Stood on one chain with CD2CD3 through a (GS)3 linker; also called A3CT motif IV; motif IV; source: E. coli Rosetta2 (DE3) pLysS, purified as part of His6–Trx–CD2CD3–IV
As for B3, the binding result in test [3] was “binds”.

B4: cpSRP43 CD3 (domain or fragment, UniProt O22265 316-373, looked up)
chain: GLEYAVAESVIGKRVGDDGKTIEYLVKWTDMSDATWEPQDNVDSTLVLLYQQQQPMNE
notes: Gly316 is the N-terminal residue in the CD3 constructs; also called CD3 only; cpSRP43 CD3 deletion construct; source: E. coli Rosetta2 pLysS, purified (as His6-Trx fusion with a cleavable TEV site; Superdex75); not shown: His6, N-terminal, cleaved; thioredoxin (Trx), N-terminal, cleaved
As to B4, the binding result in test [4] is “binds”.

Values taken from article PMC4660199 (Nature Communications, 2015).
